Results from patent US6028053A, “Peptide inhibitors of a phosphotyrosine-binding domain containing protein” (Mount Sinai Hospital Corporation, priority 1998, dated 2000).
Where two headings read alike, the source gives them in different places. Values belong to the molecule of their own block, whether it stands above or below them. Square brackets hold non-standard residues; d marks the D form. Ends that are not written are not given here. Peptide text beside a SMILES is read from it. pY = N[C@@H](Cc1ccc(OP(=O)(O)O)cc1)C(=O)O

How the values were obtained:
cells = assay: Peptide localization in cells (anti-phospho-Tyr immunofluorescence); assay type: cell-based
Method: To examine peptide localization, cells were treated with P-1 or P-2 peptide for 4 hours, stained with anti-phospho-Tyr and rhodamine-conjugated antibody, and observed with a confocal microscope. A Z-scan was carried out to make images in each 0.15 μm section from the top of the cells to the bottom. […] Cells treated with P-1 peptide were not stained by anti-phospho-Tyr antibody, confirming the specifity of the immunofluoroscence staining. In a time course analysis, cells were serum-starved for 24 hours, and incubated with peptide (5 μM) for various time periods. Cells were stained by anti-phosphoro-Tyr antibody and analyzed under an immunofluoroscence microscope. Cells treated with P-2 peptide retained phospho-peptide for up to 24 hrs. In a dose response experiment, cells were starved in serum-free medium for 24 hours, cultured with peptide at various concentrations, and stained with anti-phospho-tyrosine antibody (4G10) to detect the peptide containing phospho-tyrosine residue (red) and by Hoechst 33258 for nuclei (blue). P-2 peptide was detected at 0.5 μM and 1 μM in cells .

[1] = target: GST-Shc PTB domain fusion protein (human) (UniProt P29353); assay: SPR (Biacore) competition, Table 1
[2] = target: GST-Shc PTB domain fusion protein (human) (UniProt P29353); assay: not stated in Table 2; the same number as the IC50 of Table 1
[3] = target: GST-Shc PTB domain fusion protein (human) (UniProt P29353); assay: not stated in Table 2; presumably as the IC50 of Table 1
[4] = target: GST-Shc PTB domain fusion protein (human) (UniProt P29353); assay: SPR (Biacore) competition, Table 1; remark: listed apart in the source
[5] = target: GST-Shc PTB domain fusion protein (human) (UniProt P29353); assay: competition with EGF-R for GST-ShcB beads, dose response, anti-phospho-Tyr blot

Chain of GST-Shc PTB domain fusion protein (human) (P29353 111-319 limits assumed): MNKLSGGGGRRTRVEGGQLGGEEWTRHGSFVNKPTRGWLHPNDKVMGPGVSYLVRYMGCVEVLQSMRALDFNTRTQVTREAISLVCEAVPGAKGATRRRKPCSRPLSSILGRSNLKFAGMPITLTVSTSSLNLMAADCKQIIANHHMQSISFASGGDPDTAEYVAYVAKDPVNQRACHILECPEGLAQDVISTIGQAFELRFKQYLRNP

- peptide localization in cells (cells): not stained
Molecule: RQIKIWFQNRRMKWKKHIIENPQYFSD [P-1, RQIKIWFQNRRMKWKK-HIIENPQYFSD]

- fold increase of the affinity against the peptide with Ala at -2 [1]: 10 fold
- value printed beside the sequence without a heading [2]: 175 nM
Molecule: Wt NGF receptor phosphopeptide His-Ile-Ile-Glu-Asn-Pro-Gln-P.Tyr-Phe-Ser-Asp

- value printed beside the sequence without a heading [3]: 4 µM
Molecule: IENPQ[pY]FSD [Trk wild type truncated phosphopeptide IENPQpYFSD]

Continued, molecule first:

Molecule: CC[C@H](C)[C@H](NC(=O)[C@H](CCCCN)NC(=O)[C@@H](NC(=O)[C@H](CCC(N)=O)NC(=O)[C@@H](N)CCCNC(=N)N)[C@@H](C)CC)C(=O)N[C@@H](Cc1c[nH]c2ccccc12)C(=O)N[C@@H](Cc1ccccc1)C(=O)N[C@@H](CCC(N)=O)C(=O)N[C@@H](CC(N)=O)C(=O)N[C@@H](CCCNC(=N)N)C(=O)N[C@@H](CCCNC(=N)N)C(=O)N[C@@H](CCSC)C(=O)N[C@@H](CCCCN)C(=O)N[C@@H](Cc1c[nH]c2ccccc12)C(=O)N[C@@H](CCCCN)C(=O)N[C@@H](CCCCN)C(=O)N[C@@H](Cc1c[nH]cn1)C(=O)N[C@H](C(=O)N[C@H](C(=O)N[C@@H](CCC(=O)O)C(=O)N[C@@H](CC(N)=O)C(=O)N1CCC[C@H]1C(=O)N[C@@H](CCC(N)=O)C(=O)N[C@@H](Cc1ccc(OP(=O)(O)O)cc1)C(=O)N[C@@H](Cc1ccccc1)C(=O)N[C@@H](CO)C(=O)N[C@@H](CC(=O)O)C(=O)O)[C@@H](C)CC)[C@@H](C)CC [P-2, RQIKIWFQNRRMKWKK-HIIENPQpYFSD] (H-RQIKIWFQNRRMKWKKHIIENPQ[pY]FSD-OH)
- peptide localization in cells (cells; cells treated 4 hours, anti-phospho-Tyr staining, confocal microscope): localized in the cytoplasm of cells, and not in the nucleus
- detection of peptide in cells by anti-phospho-tyrosine staining (cells; dose response, 0.5 μM and 1 μM (concentrations up to 1 μM)): detected
- retention of phospho-peptide in cells (cells; time course, peptide 5 μM, serum-starved cells): up to 24 hrs

Molecule: HAAENPQ[pY]FSD [Ala-6, Ala-5 NGF receptor peptide H-A-A-E-N-P-Q-p.Y-F-S-D]
- fold lower affinity against a phosphopeptide with an Ile at either position -6 or -5 [4]: 3 fold

B1: C-1, Cyclo-(IENPQpYFSPG) (peptide)
peptide: cyclo(IENPQ[pY]FSPG)
SMILES: CC[C@H](C)[C@@H]1NC(=O)CNC(=O)[C@@H]2CCCN2C(=O)[C@H](CO)NC(=O)[C@H](Cc2ccccc2)NC(=O)[C@H](Cc2ccc(OP(=O)(O)O)cc2)NC(=O)[C@H](CCC(N)=O)NC(=O)[C@@H]2CCCN2C(=O)[C@H](CC(N)=O)NC(=O)[C@H](CCC(=O)O)NC1=O
- percent inhibition at 100 µM [5]: 50%
